Data published in the supplement of paper PMC10567573.

B1: DYRK1B (parent)
chain: RFQDLVLRMLEYEPAARISPLGAL
B2: DCTD (parent)
chain: VKGCSMYVALFPCNECAKLIIQAG

Variants of: B1
Test: protein stability index of a GFP-peptide fusion (GPS, HEK-293T) (PSI 1-6); higher = more stable
Settings: c terminus: a fixed tail appended
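Further: lentivirally expressed fusions sorted by FACS into six bins by GFP to DsRed ratio, PSI derived from sequencing read proportions per bin multiplied by bin number.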

Protein stability index, by site and new letter:
P20: S 2.53; Y 4.39; E 2.84; Q 2.29; V 3.27; C 3.75; F 2.2; G 2.01; N 3.12; W 3.32; T 2.1; I 2.64
P14: I 1.72; F 2.87; L 5.01; E 2.21; N 1.45
A16: T 2.28; F 1.02; M 1.85; P 1.44; E 1.36; C 3.04; K 2.35; N 3.65
L21: M 1.68; H 3.73; V 2.56; C 1.98; A 1.75; I 2.48; F 1.36; E 1.56; P 1.93; K 1.19; R 1.77; S 2.27; T 2; D 1.78; Y 2.98
R17: C 2.25; T 1; Y 3.04; S 2.69; M 4.29; N 1.46; G 2.29; F 1.77; P 2.75; I 4.01; D 1.91
L24: S 2.08; A 2.93; I 4.35; H 2.36; F 1.95; G 1.35; D 2.29; K 1.31; Q 2.27; E 2.36; C 2.82; T 4.33; P 1.6; N 1.82
I18: F 2.3; H 1.23; P 1.98; L 2.33; M 2.17; D 1.65; T 1.3; Q 2.04; S 2.1; E 2.06; A 1.41; G 1.27; N 1.23; R 1.15
A23: Q 2.06; M 2.25; H 2.52; Y 2.71; D 1.42; T 2.04; K 1.29; G 2.75; F 1.59; R 2.45
A15: M 2.57; Q 2.04; Y 2.03; W 5.07; P 2.8; H 5.14; K 3.43; F 1.95; R 3.6
G22: Y 1.71; I 2.49; D 2.68; E 3.2; C 1.86; F 2.04; L 2.02; K 2.67; V 3.1; T 3.41; A 2.95; W 2.76; M 2.2; H 1.52
S19: E 3.96; K 3.06; Y 3.82; R 2.38; Q 1.55; G 1.07; L 4.05; D 1.76; P 2.61; V 2.91; A 1.17
E13: Y 3.29

Variants of: B2
Test: as above
Settings: c terminus: a fixed tail appended

Protein stability index, by site and new letter:
V1: S 3.18; H 1.54; T 3.12; I 2.68; W 2.09; K 3.98; P 2.74; A 1.7; E 2.15; G 3.72; C 2.61; F 3.94; M 3.04
K2: H 2.42; W 3.93; F 2.27; S 3.47; P 2.71; T 3.52; R 2.54; D 2.7; V 4.19
C4: E 1.71; P 1.75; R 3.18; A 2.19; I 2.89; L 2.78; F 2.92
G3: N 3.06; V 2.23; D 3.8; Q 3.85; P 4.11; F 2.27; A 2.9; I 3.94; C 2.07; K 2.53; Y 4.09; W 4.42; M 4.03; T 3.43
